{"source": "paper PMC5614898", "binders": {"B1": {"name": "DBE2 (Daf-16 family binding element 2) (dsDNA)", "DNA 1": "TGCAAAATGTAAACAAGACT", "DNA 2": "AGTCTTGTTTACATTTTGCA"}}, "target": "T1, FOXA2-DBD without wing 2 (human, UniProt Q9Y261 157-239)", "T1 sequence": "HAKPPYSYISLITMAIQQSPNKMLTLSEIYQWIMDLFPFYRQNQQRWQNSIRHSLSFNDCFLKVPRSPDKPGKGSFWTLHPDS", "test": "ITC", "data": [{"binder": "B1", "values": [{"measurement": "Kd", "value": "3.5 ± 0.3", "unit": "µM"}]}]}
